We go through 3 molecules from patent publication US20130251703A1 (Novartis, published 2013).

The target of experiment [1] is T1, human HER3 endogenously expressed on human cancer cells (SK-Br-3, BT-474, MCF7) (human, UniProt P21860 20-1342). As to the kind of experiment: cell-based or functional assay.
Experiment [2] has as its target T1, human HER3 endogenously expressed on …. As to the kind of experiment: cell-based or functional assay. The source holds these as a separate data set.
For experiment [3] the target is unchanged. Put plainly: cell-based or functional assay. This is another data set of the same source.
For experiment [4], the target named is T2, Hu HER3: CD33-[Human HER3, residues 20-640]-TAG (human, UniProt P21860 20-640).
T2 construct: also called hu HER3-Tag; HER3-Tag; not shown: C-terminal TAG (e.g. FLAG TAG)
As to the kind of experiment: solution equilibrium titration (SET), IgG, ECL read-out.

B1: MOR13657 (antibody, human IgG1, lambda, V domains shown)
VH: QVQLVQSGAEVKKPGASVKVSCKASGYTFTSYDIHWVRQAPGQGLEWMGRIDPYSGNTNYAQKFQGRVTMTRDTSISTAYMELSRLRSEDTAVYYCARGSFYTRDSYFDVWGQGTLVTVSS
VL: DIALTQPASVSGSPGQSITISCTGTSSDVGTYNQVSWYQQHPGKAPKLMIYGVSKRPSGVSNRFSGSKSGNTASLTISGLQAEDEADYYCSARDGWSEYVFGGGTKLTVLG
notes: Tested as IgG
For the molecule B1, in experiment [1], the “BT474 pHER3 % inhibition” value was found to be 63%, the “BT474 pHER3 IC50” value was 372 pM, the “MCF7 pHER3 % inhibition” value is 75% and the “MCF7 pHER3 IC50” value came out at 283 pM. In experiment [1], the “SK-Br-3 pHER3 % inhibition” value is 71% and the “SK-Br-3 pHER3 IC50” value came out at 142 pM. Further, in experiment [2], the “BT-474 pAkt % inhibition” value was determined as 53%, the “BT-474 pAkt IC50” value amounted to 586 pM, the “MCF7 pAkt % inhibition” value was found to be 75% and the “MCF7 pAkt IC50” value worked out at 385 pM. In addition, in experiment [2], the “SK-Br-3 pAkt % inhibition” value was 91% and the “SK-Br-3 pAkt IC50” value is 33 pM. For the same molecule, in experiment [3], the “BT-474 proliferation % inhibition” value was 30%, the “BT-474 proliferation IC50” value turned out to be 0.473 nM, the “SK-Br-3 proliferation % inhibition” value is 39% and the “SK-Br-3 proliferation IC50” value was 0.179 nM. For the same molecule, the Kd (in general, the equilibrium constant for the complex coming apart) in experiment [4] is 0.087 nM.

B2: MOR13666 (antibody, human IgG1, lambda, V domains shown)
VH: QVQLVQSGAEVKKPGASVKVSCKASGYTFTSYDIHWVRQAPGQGLEWMGRIDPYSGNTNYAQKFQGRVTMTRDTSISTAYMELSRLRSEDTAVYYCARGSFYTRDSYFDVWGQGTLVTVSS
VL: DIALTQPASVSGSPGQSITISCTGTSSDVGTYNQVSWYQQHPGKAPKLMIYGVSKRPSGVSNRFSGSKSGNTASLTISGLQAEDEADYYCSTTTYSFHMVFGGGTKLTVLG
notes: Tested as IgG
Consider B2, for which, in experiment [1], the “BT474 pHER3 % inhibition” value was 65%, the “BT474 pHER3 IC50” value came out at 420 pM, the “MCF7 pHER3 % inhibition” value is 73% and the “MCF7 pHER3 IC50” value came out at 168 pM. Further, in experiment [1], the “SK-Br-3 pHER3 % inhibition” value amounted to 69% and the “SK-Br-3 pHER3 IC50” value is 166 pM. Besides, in experiment [2], the “BT-474 pAkt % inhibition” value worked out at 50%, the “BT-474 pAkt IC50” value was 275 pM, the “MCF7 pAkt % inhibition” value came out at 72% and the “MCF7 pAkt IC50” value stood at 49 pM. Further, in experiment [2], the “SK-Br-3 pAkt % inhibition” value is 90% and the “SK-Br-3 pAkt IC50” value was determined as 78 pM. For the same molecule, in experiment [3], the “BT-474 proliferation % inhibition” value came out at 31%, the “BT-474 proliferation IC50” value was 1.12 nM, the “SK-Br-3 proliferation % inhibition” value worked out at 39% and the “SK-Br-3 proliferation IC50” value was 0.87 nM. Further, the Kd in experiment [4] worked out at 0.15 nM.

B3: MOR13658 (antibody, human IgG1, lambda, V domains shown)
VH: QVQLVQSGAEVKKPGASVKVSCKASGYTFTSYDIHWVRQAPGQGLEWMGRIDPYSGNTNYAQKFQGRVTMTRDTSISTAYMELSRLRSEDTAVYYCARGSFYTRDSYFDVWGQGTLVTVSS
VL: DIALTQPASVSGSPGQSITISCTGTSSDVGTYNQVSWYQQHPGKAPKLMIYGVSKRPSGVSNRFSGSKSGNTASLTISGLQAEDEADYYCASADHSYHTVFGGGTKLTVLG
notes: Tested as IgG
B3: in experiment [1], the “BT474 pHER3 % inhibition” value came to 67%, the “BT474 pHER3 IC50” value came to 571 pM, the “MCF7 pHER3 % inhibition” value was determined as 83% and the “MCF7 pHER3 IC50” value was 459 pM. Also, in experiment [1], the “SK-Br-3 pHER3 % inhibition” value was found to be 74% and the “SK-Br-3 pHER3 IC50” value is 347 pM. Besides, in experiment [2], the “BT-474 pAkt % inhibition” value was 56%, the “BT-474 pAkt IC50” value was determined as 461 pM, the “MCF7 pAkt % inhibition” value was found to be 81% and the “MCF7 pAkt IC50” value is 341 pM. Moreover, in experiment [2], the “SK-Br-3 pAkt % inhibition” value turned out to be 92% and the “SK-Br-3 pAkt IC50” value is 172 pM. Moreover, in experiment [3], the “BT-474 proliferation % inhibition” value came to 34%, the “BT-474 proliferation IC50” value stood at 0.423 nM, the “MCF7 proliferation % inhibition” value was 49% and the “MCF7 proliferation IC50” value turned out to be 0.174 nM. Further, in experiment [3], the “SK-Br-3 proliferation % inhibition” value was determined as 42% and the “SK-Br-3 proliferation IC50” value came out at 0.191 nM. The Kd in experiment [4] is 0.027 nM.
